Experimental data: patent US20250042956A1 (University of California, published 2025)

What was measured:
Test in all cases: IP-MS rep 1
AT3G10480.3 NAC050 = biological target: T1, AT3G10480.3 NAC050 (Arabidopsis thaliana, UniProt Q9SQX9 1-447, limits assumed)
T1 construct: Endogenous protein found by mass spectrometry
T1 sequence (looked up): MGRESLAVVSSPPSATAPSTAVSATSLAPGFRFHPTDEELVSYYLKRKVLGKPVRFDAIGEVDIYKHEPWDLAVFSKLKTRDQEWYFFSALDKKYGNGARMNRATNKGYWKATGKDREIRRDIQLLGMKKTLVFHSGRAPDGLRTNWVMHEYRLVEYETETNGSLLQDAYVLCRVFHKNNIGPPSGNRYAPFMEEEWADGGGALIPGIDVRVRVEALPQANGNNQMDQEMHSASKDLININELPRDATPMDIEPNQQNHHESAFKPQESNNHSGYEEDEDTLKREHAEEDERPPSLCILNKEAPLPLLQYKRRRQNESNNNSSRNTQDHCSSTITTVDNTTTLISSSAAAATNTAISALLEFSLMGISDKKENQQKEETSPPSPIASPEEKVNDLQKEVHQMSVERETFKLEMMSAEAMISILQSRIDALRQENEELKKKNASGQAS
Method in brief: (§1)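 Ten grams of unopened floral buds from Col-0 wild type and FLAG-tagged transgenic Arabidopsis lines were ground in liquid nitrogen, homogenised in 25 mL IP buffer and filtered through Miracloth. Lysates were incubated with 250 μL anti-FLAG M2 magnetic beads at 4° C for 2 hours, washed and eluted with TBS containing 250 μg/mL 3×FLAG peptides. Eluted proteins were precipitated with trichloroacetic acid and analysed by mass spectrometry to give peptide counts for co-purified proteins.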

AT5G51230.1 EMF2 = biological target: T2, AT5G51230.1 EMF2 (Arabidopsis thaliana, UniProt Q8L6Y4 1-631)
T2 construct: Endogenous protein found by mass spectrometry; also called EMBRYONIC FLOWER 2
T2 sequence (looked up): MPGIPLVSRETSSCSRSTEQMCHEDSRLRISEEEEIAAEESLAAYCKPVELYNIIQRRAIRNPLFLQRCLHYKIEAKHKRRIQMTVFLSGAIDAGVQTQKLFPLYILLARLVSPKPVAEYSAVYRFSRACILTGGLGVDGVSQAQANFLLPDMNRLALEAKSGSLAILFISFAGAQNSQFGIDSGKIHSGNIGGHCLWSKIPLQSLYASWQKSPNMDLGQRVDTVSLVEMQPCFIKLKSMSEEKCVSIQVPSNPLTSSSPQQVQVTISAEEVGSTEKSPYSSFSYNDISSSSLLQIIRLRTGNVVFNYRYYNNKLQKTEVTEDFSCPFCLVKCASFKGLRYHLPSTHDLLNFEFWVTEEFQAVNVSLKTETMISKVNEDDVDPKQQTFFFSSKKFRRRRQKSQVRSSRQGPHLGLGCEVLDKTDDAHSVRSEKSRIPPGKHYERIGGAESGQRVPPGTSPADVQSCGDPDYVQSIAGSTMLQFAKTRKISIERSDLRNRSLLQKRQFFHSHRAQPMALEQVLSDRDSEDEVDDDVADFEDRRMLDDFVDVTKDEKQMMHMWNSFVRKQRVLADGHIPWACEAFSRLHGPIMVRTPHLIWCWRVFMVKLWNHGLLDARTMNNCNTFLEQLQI
Method in brief: as §1

AT3G20740.1 FIE = biological target: T3, AT3G20740.1 FIE (Arabidopsis thaliana, UniProt Q9LT47 1-369)
T3 construct: Endogenous protein found by mass spectrometry; also called FERTILIZATION INDEPENDENT ENDOSPERM
T3 sequence (looked up): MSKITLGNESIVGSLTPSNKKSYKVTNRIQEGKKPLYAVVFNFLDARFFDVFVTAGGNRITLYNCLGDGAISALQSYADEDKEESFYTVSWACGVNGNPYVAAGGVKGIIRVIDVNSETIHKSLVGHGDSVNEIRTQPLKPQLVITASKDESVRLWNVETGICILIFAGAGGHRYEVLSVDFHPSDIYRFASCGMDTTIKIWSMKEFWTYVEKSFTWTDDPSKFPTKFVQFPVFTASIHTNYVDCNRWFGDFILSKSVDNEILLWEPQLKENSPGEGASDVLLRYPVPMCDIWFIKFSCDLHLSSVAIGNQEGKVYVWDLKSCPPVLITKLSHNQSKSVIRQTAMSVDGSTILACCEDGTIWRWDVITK
Method in brief: as §1

AT2G23380.1 CLF = biological target: T4, AT2G23380.1 CLF (Arabidopsis thaliana, UniProt P93831 1-902)
T4 construct: Endogenous protein found by mass spectrometry; also called CURLY LEAF
T4 sequence (looked up): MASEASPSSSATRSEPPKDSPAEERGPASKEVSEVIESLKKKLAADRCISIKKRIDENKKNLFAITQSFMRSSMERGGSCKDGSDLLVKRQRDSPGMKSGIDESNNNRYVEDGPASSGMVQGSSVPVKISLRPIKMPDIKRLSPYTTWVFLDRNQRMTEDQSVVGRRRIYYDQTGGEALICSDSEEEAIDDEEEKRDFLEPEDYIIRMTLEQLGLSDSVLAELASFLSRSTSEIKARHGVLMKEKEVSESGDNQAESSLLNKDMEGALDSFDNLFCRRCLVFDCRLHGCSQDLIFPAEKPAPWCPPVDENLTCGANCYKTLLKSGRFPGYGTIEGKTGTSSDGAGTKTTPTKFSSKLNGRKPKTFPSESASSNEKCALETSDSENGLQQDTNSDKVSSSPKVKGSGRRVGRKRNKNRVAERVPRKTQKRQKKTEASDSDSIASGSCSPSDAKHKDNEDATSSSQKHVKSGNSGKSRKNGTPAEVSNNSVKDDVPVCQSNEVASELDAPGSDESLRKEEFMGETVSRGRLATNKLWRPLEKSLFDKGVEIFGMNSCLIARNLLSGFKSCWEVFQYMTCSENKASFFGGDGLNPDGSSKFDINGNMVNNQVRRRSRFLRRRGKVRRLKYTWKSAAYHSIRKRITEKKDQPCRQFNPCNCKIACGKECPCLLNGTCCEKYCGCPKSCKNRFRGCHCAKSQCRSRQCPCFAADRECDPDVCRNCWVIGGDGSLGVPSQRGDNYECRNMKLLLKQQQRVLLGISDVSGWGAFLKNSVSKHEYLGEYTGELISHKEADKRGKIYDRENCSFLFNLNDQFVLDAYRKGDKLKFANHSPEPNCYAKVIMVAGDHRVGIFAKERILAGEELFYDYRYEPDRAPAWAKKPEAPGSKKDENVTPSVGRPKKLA
Method in brief: as §1

B1: TRBIP2 (bait of the TRBIP2 IP-MS) (other, not shown: small tags and cut ends)
chain: MATNACLESDSLLPPRKRLLAGFKNQNSRISNESPSPPFASSSSSTTTSNGSSASAVVHTHHLDHLLNDQTRSPEELAQASKATAALAVKVAKAARATANEKAIIASKAVAAAKNALELFASFPAAETVSCKEPRLIRAINNSPRVLTDCSGHRNKKQKTLTSTMNDGNDVAGVVDSDDGTRVNGKLLLCDNTLKEKTEEESSSLGKRRGRVKLPLSMCAYKDQENGITLEENNLSVSKSEGYNGGVAQVIERPSWKCQDLKSPECVKQNKVVRS
notes: tag and its position not described; also called TRBIP2-1; TRBIP2-2
Work on B1 yielded an IP-MS count (AT3G10480.3 NAC050) of 1, an IP-MS count (AT5G51230.1 EMF2) of 0 and an IP-MS count (AT3G20740.1 FIE) of 1. For the same binder, the IP-MS count (AT2G23380.1 CLF) was 0.
